Laboratory results: paper PMC3601957, “Structural Basis of Rap Phosphatase Inhibition by Phr Peptides” (PLoS Biology, 2013)

Legend:
RapF [1] = biological target: T1, RapF (Bacillus subtilis, UniProt P71002); test: Thermal-shift peptide binding assay, wild-type RapF; parameters: species or system B. subtilis; conditions: peptide 1 mM, PhrA and PhrE: unpublished data
T1 construct: 6xHis (N, cleaved yes); made in house; host or cells: Escherichia coli BL21 RIL
T1 sequence (P71002 whole entry, looked up): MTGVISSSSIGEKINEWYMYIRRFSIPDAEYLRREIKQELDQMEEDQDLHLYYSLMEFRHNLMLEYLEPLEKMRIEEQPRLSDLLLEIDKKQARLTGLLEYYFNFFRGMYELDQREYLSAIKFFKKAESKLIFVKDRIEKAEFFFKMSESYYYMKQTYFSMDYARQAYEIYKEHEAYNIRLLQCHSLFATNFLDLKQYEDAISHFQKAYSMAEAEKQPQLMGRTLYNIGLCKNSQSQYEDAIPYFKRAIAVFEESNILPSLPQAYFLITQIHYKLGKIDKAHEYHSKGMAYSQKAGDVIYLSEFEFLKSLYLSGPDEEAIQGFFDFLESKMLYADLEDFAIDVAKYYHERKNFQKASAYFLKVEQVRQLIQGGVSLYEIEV
Experimental: The thermal-shift assay was conducted in a 7500 Fast Real-time PCR System (Applied Biosystems). Final melt conditions were 20 mM Tris-HCl (pH 8), 100 mM NaCl, 20 µM RapF, and 5× SYPRO Orange (Sigma-Aldrich). The final concentration of the inhibitory peptides was 1 mM when they were present. The assays were carried out at a final volume of 20 µl in 96-well PCR plates. Samples were heated at 1°C/min. Fluorescent intensity was plotted versus temperature and integrated with the GraphPad Prism 4 software using a Boltzmann model to calculate melting temperatures.

RapF [2] = biological target: T1, RapF; test: Limited proteolysis with trypsin, wild-type RapF; type: biochemical, B. subtilis; conditions: wild-type RapF 1.5 mg/ml, peptide 1 mM, trypsin 1:10,000, 37°C, 0-90 min, SDS-PAGE / native PAGE (60 min); PhrA and PhrE: unpublished data
Experimental: Wild-type RapF and mutant variants (RapF^E303K, RapF^E303A, RapF^N227A, and RapF^D194A) at a concentration of 1.5 mg/ml were pre-incubated in lysis buffer (10 mM Tris-HCl [pH 8], 0.1 mM EDTA, 1 mM β-mercaptoethanol, 100 mM NaCl, 5% glycerol, and 5 mM CaCl2) in the presence (1 mM) or absence of inhibitory peptides at room temperature for 30 min. The protein was subjected to proteolysis by trypsin (1∶10,000) at 37°C and aliquots of the reaction mixture were taken after 0, 10, 30, and 90 min of incubation, mixed with SDS–PAGE loading buffer and immediately boiled to stop the enzyme reaction. Samples were then separated on 12% acrylamide SDS–PAGE and stained with Coomassie brilliant blue. For the peptide titration experiments, RapF was incubated in lysis buffer with increasing concentrations of PhrF at room temperature for 30 min and subjected to limited proteolysis with trypsin(1∶10,000) at 37°C for 60 min. The reactions were stopped SDS–PAGE loading buffer and analyzed by SDS–PAGE.

RapA = conditions: cited from earlier work
Excerpt: The RNPP family of Gram-positive quorum sensors presents a characteristic C-terminal TPR domain with seven TPR repeats for the structurally known Raps (RapF and RapH) (Figures 1E and S3),[31]. The RapF TPR domain folded in a large superhelix to generate a pseudo circular structure that was closed in a wide channel (8,588 Å^3, calculated by the CASTp software) by the interaction of the terminal part of TPR7 (and the following C-terminal tail) with the initial part of TPR1 (Figure 1). As a channel, the generated ring-like structure was open on both faces (Figures S4, upper panel) ... || Peptide anchoring should be independent of its sequence. Thus, it is primarily mediated by interactions with the peptide main chain. These interactions are mainly polar in nature and involve the side chain hydrogen bonds and salt bridges of Tyr66, Tyr152, Gln183, Arg223, Asn227, Gln263, and Asp338 with the PhrF backbone (Figure 2). Additionally, the conserved Arg at position 2 of the Phr peptides is anchored by a salt bridge with the side chain of a conserved Asp residue (Asp194 in RapF) from TPR3 (Figure 2). […] The conserved asparagine in the RNPP family (Asn227 in RapF) interacts with the PhrF backbone and supports the key role of this residue in peptide accommodation.

RapF^E303K = biological target: T2, RapF^E303K (B. subtilis, UniProt P71002 1-381, E303K); test: native gel or EMSA; titration on 8% native gel; 20 µg protein, peptide 50 nM to 1.2 mM in 20 µl buffer A, 15 min at room temperature; midpoint of the transition taken as the apparent Kd; conditions: both partners purified
T2 construct: RapF of Bacillus subtilis with Glu303 changed to Lys, made from pPROEX-RapF by site-directed mutagenesis; Same construct as m1 with the point mutation; also called RapF Glu303Lys; source: E. coli BL21 RIL, purified as native RapF; not shown: His6, N-terminal, cleaved
T2 sequence: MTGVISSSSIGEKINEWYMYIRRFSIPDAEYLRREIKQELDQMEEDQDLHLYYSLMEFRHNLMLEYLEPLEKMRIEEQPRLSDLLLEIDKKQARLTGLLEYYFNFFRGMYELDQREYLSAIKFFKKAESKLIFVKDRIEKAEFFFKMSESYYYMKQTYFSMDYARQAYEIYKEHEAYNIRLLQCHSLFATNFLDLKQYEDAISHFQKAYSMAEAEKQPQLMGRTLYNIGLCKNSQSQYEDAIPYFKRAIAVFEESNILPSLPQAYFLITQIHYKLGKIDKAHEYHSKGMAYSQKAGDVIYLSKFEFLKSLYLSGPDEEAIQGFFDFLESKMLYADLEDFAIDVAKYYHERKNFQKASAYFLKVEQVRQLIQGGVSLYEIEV

RapF [3] = biological target: T3, RapF (B. subtilis, UniProt P71002 1-381); test: as above; conditions: both partners purified
T3 construct: RapF of Bacillus subtilis, amplified from genomic DNA and cloned in pPROEX-HTa; The text speaks of residues up to Val381, which fits the whole protein; also called wild-type RapF; native RapF; source: E. coli BL21 RIL, purified (HisTrap, TEV digestion, Superdex 200); not shown: His6, N-terminal, cleaved
T3 sequence: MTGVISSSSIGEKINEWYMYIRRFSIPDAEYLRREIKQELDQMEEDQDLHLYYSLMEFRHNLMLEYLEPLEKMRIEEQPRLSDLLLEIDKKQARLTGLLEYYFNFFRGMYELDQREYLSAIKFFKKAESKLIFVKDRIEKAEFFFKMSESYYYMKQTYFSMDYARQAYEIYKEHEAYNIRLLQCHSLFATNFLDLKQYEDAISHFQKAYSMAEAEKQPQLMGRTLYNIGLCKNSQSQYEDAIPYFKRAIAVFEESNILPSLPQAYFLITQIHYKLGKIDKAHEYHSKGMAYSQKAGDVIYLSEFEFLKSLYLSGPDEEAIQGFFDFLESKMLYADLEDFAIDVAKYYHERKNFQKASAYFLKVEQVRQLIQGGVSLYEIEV

RapF^E303A = biological target: T4, RapF^E303A (B. subtilis, UniProt P71002 1-381, E303A); test: as above; conditions: both partners purified
T4 construct: RapF of Bacillus subtilis with Glu303 changed to Ala, made from pPROEX-RapF by site-directed mutagenesis; Same construct as m1 with the point mutation; also called RapF Glu303Ala; source: E. coli BL21 RIL, purified as native RapF; not shown: His6, N-terminal, cleaved
T4 sequence: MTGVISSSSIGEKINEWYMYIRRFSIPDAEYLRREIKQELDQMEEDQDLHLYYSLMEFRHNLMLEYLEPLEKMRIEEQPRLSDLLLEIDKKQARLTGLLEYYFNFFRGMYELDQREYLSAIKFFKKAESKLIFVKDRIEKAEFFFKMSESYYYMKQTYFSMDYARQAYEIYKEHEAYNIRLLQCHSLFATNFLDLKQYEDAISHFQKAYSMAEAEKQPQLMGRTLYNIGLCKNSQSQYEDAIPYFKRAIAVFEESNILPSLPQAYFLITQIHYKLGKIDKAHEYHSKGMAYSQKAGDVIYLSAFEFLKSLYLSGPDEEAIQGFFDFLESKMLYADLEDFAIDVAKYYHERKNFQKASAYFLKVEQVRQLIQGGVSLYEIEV

RapF^N227A = biological target: T5, RapF^N227A (B. subtilis, UniProt P71002 1-381, N227A)
T5 sequence: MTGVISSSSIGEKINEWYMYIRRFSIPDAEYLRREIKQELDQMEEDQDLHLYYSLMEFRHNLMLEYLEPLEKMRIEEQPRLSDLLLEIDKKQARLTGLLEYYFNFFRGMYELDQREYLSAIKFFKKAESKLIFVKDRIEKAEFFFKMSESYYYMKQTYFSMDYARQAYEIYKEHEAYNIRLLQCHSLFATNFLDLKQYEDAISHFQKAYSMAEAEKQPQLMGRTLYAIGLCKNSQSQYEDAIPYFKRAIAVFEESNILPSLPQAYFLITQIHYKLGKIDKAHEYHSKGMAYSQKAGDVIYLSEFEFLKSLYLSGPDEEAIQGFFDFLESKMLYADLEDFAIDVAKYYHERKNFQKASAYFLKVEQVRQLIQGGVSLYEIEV

RapF^D194A = biological target: T6, RapF^D194A (B. subtilis, UniProt P71002 1-381, D194A)
T6 sequence: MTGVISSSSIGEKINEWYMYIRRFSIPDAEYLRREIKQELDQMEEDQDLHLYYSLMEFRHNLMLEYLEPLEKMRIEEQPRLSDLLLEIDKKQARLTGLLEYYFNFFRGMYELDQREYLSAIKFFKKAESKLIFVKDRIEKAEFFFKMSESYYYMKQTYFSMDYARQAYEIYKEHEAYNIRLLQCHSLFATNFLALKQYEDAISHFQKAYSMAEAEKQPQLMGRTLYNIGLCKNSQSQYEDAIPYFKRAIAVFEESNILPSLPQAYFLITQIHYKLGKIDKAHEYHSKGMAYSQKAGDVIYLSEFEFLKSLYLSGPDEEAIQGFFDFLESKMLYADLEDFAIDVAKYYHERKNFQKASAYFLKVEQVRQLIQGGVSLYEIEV

RapF [4] = biological target: T3, RapF; test: thermal-shift assay (SYPRO Orange); 20 µM RapF, peptides 1 mM; 20 mM Tris-HCl pH 8, 100 mM NaCl; heated at 1°C/min; conditions: both partners purified

PhrE: PhrE, non RapF partner peptide (SRNVT)
thermal stabilization by peptide (RapF [1]): presented identical melting transitions to those observed in the absence of peptide | protection of RapF against trypsin digestion (RapF [2]): did not protect against trypsin attack

PhrA: PhrA, inhibitor peptide of RapA; non RapF partner peptide (ARNQT)
sensitivity of RapA Asp192 and His260 mutants to peptide (RapA; RapA Asp192 and His260 mutants, Spo0F∼P dephosphorylation unaffected): insensitive to the inhibitory activity of PhrA | binding to RapA Tyr224 or His260 to alanine mutants (RapA; RapA Tyr224Ala or His260Ala, no effect on enzymatic activity): completely abolishes the capacity to bind PhrA | binding to RapA mutant, Asn to Ala (position of RapF Asn227) (RapA; RapA mutant, intact capacity to bind Spo0F): impaired capacity to bind the PhrA peptide | requirement for inhibition of RapA (RapA): requirement of the free terminal carboxylate group | sensitivity of RapA mutants at positions of RapF Tyr226 and Leu230 (RapA; functional RapA variants): completely insensitive to the PhrA peptide | thermal stabilization by peptide (RapF [1]): presented identical melting transitions to those observed in the absence of peptide | protection of RapF against trypsin digestion (RapF [2]): did not protect against trypsin attack

B1: PhrF (peptide)
peptide: QRGMI
notes: mature active form of the PhrF precursor; The purchase from Genescript is stated for the crystallisation; no other source is named; also called PhrF peptide; source: bought: Genescript
Kd (RapF^E303K): 13.2 µM | Kd (RapF [3]): 3.1 µM | Kd (RapF^E303A): 29 µM | Kd (RapF^N227A): > 1200 µM | Kd (RapF^D194A): > 1200 µM | increment in the melting temperature of RapF with PhrF (RapF [4]): ~20 °C

B2: PhrC (peptide)
peptide: ERGMT
notes: mature active form of the PhrC precursor; also called PhrC peptide; RapC (PhrC) peptide
Kd (RapF^E303K): 19.6 µM
